Assay results from article PMC5493697, “Crystal structure of Pelagibacterium halotolerans PE8: New insight into its substrate-binding pattern” (Scientific Reports, 2017).
Positions count from the first letter of the chain named. Names may count otherwise.

Substrate: CC(=O)Oc1ccc([N+](=O)[O-])cc1
Assay: purified protein
Type: biochemical, Pelagibacterium halotolerans
Conditions: 100 mM Tris-HCl pH 7.5, 30 °C, 0.05-4 mM substrate in acetonitrile

B1: PE8 (Pelagibacterium halotolerans B2; S118A) (protein)
chain: MTEPVKLSGPMLPAVSGAAKSLVVLLHGYGSDGRDLIALGQFWRDSFPDTMFVAPNAPHVCGGNPFGYEWFPLDLERDRTLARLAGAETAHPVLDAFLADLWAQTGLGPADTILVGFAQGAMMALYTGLRLPEPLKAIIAFSGLIVAPEKLEAEIASKPPVLLIHGDLDDVVPVIGSETALPKLIDLGIDARLHISQGSGHTIAQDGLDTATAFLREIL
notes: 6xHis fusion from pET28b in E. coli Rosetta (DE3), Ni-NTA and SEC; monomer; catalytic triad Ser118, Asp169, His201
How did the Km turn out when B1 was run?
The Km was 540 ± 46 µM.

What about the Vmax of the same protein?
Its Vmax is 12 µM/min/mg.

And the kcat?
The kcat was 5.1 ± 0.14 s⁻¹.

B2: PE8 (Pelagibacterium halotolerans B2; M122A) (protein)
chain: B1 chain with A118S, M122A
notes: as for B1
What does the source list for B2?
Km: 75 ± 6.9 µM; Vmax: 96 µM/min/mg; kcat: 40 ± 0.68 s⁻¹

B3: PE8 (Pelagibacterium halotolerans B2; L73A) (protein)
chain: B1 chain with L73A, A118S
notes: as for B1
Which results are given for B3?
Km: 530 ± 26 µM; Vmax: 55 µM/min/mg; kcat: 23 ± 0.27 s⁻¹

B4: PE8 (Pelagibacterium halotolerans B2; V172A) (protein)
chain: B1 chain with A118S, V172A
notes: as for B1
What does the source list for B4?
Km: 500 ± 35 µM; Vmax: 82 µM/min/mg; kcat: 35 ± 0.63 s⁻¹

B5: PE8 (Pelagibacterium halotolerans B2) (protein)
chain: B1 chain with A118S
notes: as for B1
How did the Km turn out when B5 was run?
The Km was 660 ± 49 µM.

What about the Vmax of the same protein?
The Vmax was 71 µM/min/mg.

What about the kcat of the same protein?
Its kcat is 30 ± 0.68 s⁻¹.

B6: PE8 (Pelagibacterium halotolerans B2; R83A) (protein)
chain: B1 chain with R83A, A118S
notes: as for B1
What does the source list for B6?
Km: 600 ± 23 µM; Vmax: 97 µM/min/mg; kcat: 41 ± 0.42 s⁻¹

B7: PE8 (Pelagibacterium halotolerans B2; V171A) (protein)
chain: B1 chain with A118S, V171A
notes: as for B1
How did the Km turn out when B7 was run?
The Km was 890 ± 70 µM.

And the Vmax?
The Vmax was 36 µM/min/mg.

What about the kcat of the same protein?
Its kcat is 19 ± 0.42 s⁻¹.

B8: PE8 (Pelagibacterium halotolerans B2; R79A) (protein)
chain: B1 chain with R79A, A118S
notes: as for B1
With B8 as the protein, how does the Km read?
Its Km is 600 ± 62 µM.

What about the Vmax of the same protein?
The Vmax was 132 µM/min/mg.

And the kcat?
The kcat was 55 ± 1.7 s⁻¹.
